In IntAct's records for PubMed 17064696:

B1: Sphingosine kinase 1 (Homo sapiens), Q9NYA1 (parent)
chain: MDPAGGPRGVLPRPCRVLVLLNPRGGKGKALQLFRSHVQPLLAEAEISFTLMLTERRNHARELVRSEELGRWDALVVMSGDGLMHEVVNGLMERPDWETAIQKPLCSLPAGSGNALAASLNHYAGYEQVTNEDLLTNCTLLLCRRLLSPMNLLSLHTASGLRLFSVLSLAWGFIADVDLESEKYRRLGEMRFTLGTFLRLAALRTYRGRLAYLPVGRVGSKTPASPVVVQQGPVDAHLVPLEEPVPSHWTVVPDEDFVLVLALLHSHLGSEMFAAPMGRCAAGVMHLFYVRAGVSRAMLLRLFLAMEKGRHMEYECPYLVYVPVVAFRLEPKDGKGVFAVDGELMVSEAVQGQVHPNYFWMVSGCVEPPPSWKPQQMPPPEEPL

Variants of: B1
Settings: with catb_human CTSB

Row | Variant | effect of a mutation on the interaction
1 | MDPAGGPRGVLPRPCRVLVLLNPRGGKGKALQLFRSHVQPLLAEAEISFTLMLTERRNHARELVRSEELGRWDALVVMSGDGLMHEVVNGLMERPDWETAIQKPLCSLPAGSGNALAASLEHYAGYEQVTNEDLLTNCTLLLCRRLLSPMNLLSLHTASGLRLFSVLSLAWGFIADVDLESEKYRRLGEMRFTLGTFLRLAALRTYRGRLAYLPVGRVGSKTPASPVVVQQGPVDAHLVPLEEPVPSHWTVVPDEDFVLVLALLHSHLGSEMFAAPMGRCAAGVMHLFYVRAGVSRAMLLRLFLAMEKGRHMEYECPYLVYVPVVAFRLEPKDGKGVFAVDGELMVSEAVQGQVHPNYFWMVSGCVEPPPSWKPQQMPPPEEPL [N121E] | decreasing interaction

Variants of: B1
Settings: with catb_human CTSB
Remark: another data set of the same source

Row | Variant | effect of a mutation on the interaction
2 | MDPAGGPRGVLPRPCRVLVLLNPRGGKGKALQLFRSHVQPLLAEAEISFTLMLTERRNHARELVRSEELGRWDALVVMSGDGLMHEVVNGLMERPDWETAIQKPLCSLPAGSGNALAASLNYYAGYEQVTNEDLLTNCTLLLCRRLLSPMNLLSLHTASGLRLFSVLSLAWGFIADVDLESEKYRRLGEMRFTLGTFLRLAALRTYRGRLAYLPVGRVGSKTPASPVVVQQGPVDAHLVPLEEPVPSHWTVVPDEDFVLVLALLHSHLGSEMFAAPMGRCAAGVMHLFYVRAGVSRAMLLRLFLAMEKGRHMEYECPYLVYVPVVAFRLEPKDGKGVFAVDGELMVSEAVQGQVHPNYFWMVSGCVEPPPSWKPQQMPPPEEPL [H122Y] | decreasing interaction

Variants of: B1
Settings: with catb_human CTSB
Remark: another data set of the same source

Row | Variant | effect of a mutation on the interaction
3 | MDPAGGPRGVLPRPCRVLVLLNPRGGKGKALQLFRSHVQPLLAEAEISFTLMLTERRNHARELVRSEELGRWDALVVMSGDGLMHEVVNGLMERPDWETAIQKPLCSLPAGSGNALAASLNHAAGYEQVTNEDLLTNCTLLLCRRLLSPMNLLSLHTASGLRLFSVLSLAWGFIADVDLESEKYRRLGEMRFTLGTFLRLAALRTYRGRLAYLPVGRVGSKTPASPVVVQQGPVDAHLVPLEEPVPSHWTVVPDEDFVLVLALLHSHLGSEMFAAPMGRCAAGVMHLFYVRAGVSRAMLLRLFLAMEKGRHMEYECPYLVYVPVVAFRLEPKDGKGVFAVDGELMVSEAVQGQVHPNYFWMVSGCVEPPPSWKPQQMPPPEEPL [Y123A] | decreasing interaction
